{"source": "paper PMC4186839", "about": "“Streptomyces coelicolor SCO4226 Is a Nickel Binding Protein” (PLoS ONE, 2014)", "biological_target": "the molecule itself", "assay": "crystal structure; Se-Met labelled apo-SCO4226 crystals (1.30 Å) and the same crystals soaked about 1 hr in 0.8 M sodium citrate pH 6.5 with 0.8 M NiSO4 (Ni-SCO4226, 2.04 Å); space group P21; one dimer in each asymmetric unit", "data": [{"protein": "SCO4226 (natural protein, Streptomyces coelicolor A3(2), UniProt Q9FCE4 1-82, looked up, seleno-methionine in place of methionine (Se-Met substituted protein), SCO4226, 82-residue hypothetical protein encoded by the open reading frame SCO4226 of Streptomyces coelicolor A3(2); residues up to Ala82 (C-terminal carboxylate) are seen in the structure; No tag is named here; also called apo-SCO4226; Se-apo-SCO4226; source: E. coli B834 (DE3), Se-Met labelled, purified (nickel-chelating Sepharose, Superdex 75 gel filtration)) MAHFMDVHRGMHGITSDQLHQAHQADLAVEKDENVHFEQAWADPASGTIYCLSEGPSAEAVQRVHERAGHKADEIHEVPLSA", "values": [{"measurement": "stoichiometry N", "result": 2}]}]}
